Source: US20070275001A1, “Rational Design and Engineering of Proteins and Peptides for Immunomodulation” (Arizona Board of Regents, priority 2004, published 2007)
No end group written: not given here.

Assays:
[1] = corresponding value for the original scaffold protein; cited from earlier work
[2] = Chemical denaturation with guanidinium hydrochloride monitored by CD at 222 nm (thermodynamic stability); assay type: physicochemical
Experimental: The thermodynamic stability of the proteins was assessed by chemical denaturation studies, in which the CD signal at 222 nm was monitored at increasing concentrations of denaturant agent, guanidinium hydrochloride (FIG. 7B). A 1 cm path length rectangular quartz cell was used. The cell holder was temperature controlled at 25° C. The buffer was 10 mM potassium phosphate, pH 7.0. The bandwidth was 1.00 nm. At each GdnHCl concentration, cell chamber was equilibrated for 6 minutes, then data were collected. The curve is described by the equation: ΔGobs=ΔGH2O+m[GdnHCl] in which ΔGobs is the free energy for the two state unfolding equilibrium observed at a given concentration of GdnHCl, ΔGH2O is the free energy of denaturation extrapolated to zero GdnHCl concentration, m is a constant that provide a measure of the cooperativity of the process.
The resulting sigmoidal curve was analyzed to extrapolate the free energy of folding, ΔG, estimated to be −4.2 Kcal/mol; the corresponding ΔG for 1LQ7 is −4.6 Kcal/mol.

[3] = tested on: macrophages; details: cited from earlier work
[4] = tested on: macrophages; test: Quantification of phagocytosis of IgG-opsonized FITC latex beads by flow cytometry (in vitro macrophage activation test); assay type: cell-based; details: cells stimulated overnight, then 30' with FITC beads conjugated with IgG
Experimental: The present invention discloses a method for rapid, quantitative in vitro testing for macrophage activation. Phagocytosis is a cytoskeleton-dependent process of engulfment of large particles. Phagocytes use various surface receptors to bind and internalize the foreign particles for processing the pathogens in lysosomes (phagolysosomes) for presentation of antigens to the immune system. The effects of Gc-MAF with both positive and negative controls of phagocytosis are determined. As positive controls, macrophages are also stimulated with Beta-1,3 glucans, a well-known immune stimulator, for functional comparison. Specifically, curdlan, linear (1,3)-Beta-D-glucans are used. […] Once the cells are suspended in the culture medium, quantification of phagocytosis is accomplished by flow cytometry. One unique feature of flow cytometry is that it measures fluorescence per cell or particle. FIG. 8 illustrates the quantification of phagocytosis by flow cytometry. […] A FACSCalibur (FACS=Fluorescence Activated Cell Sorter) system (Becton Dickinson) equipped with an air-cooled argon ion laser (488 nm, 15 mW output) is used for this study. Forward light scatter (FSC) and 90° light scatter (SSC) were measured at 488 nm and fluorescence emissions (FL parameters) were collected using the FSC as the triggering signal. Fluorescence data was reported by CellQuest software (Becton Dickinson). […]

For “1LQ7: stable designed three-helix bundle scaffold from the Protein Data Bank, originally designed at the University of Pennsylvania (chain 1 GSRVKALEEKVKALEEKVKALGGGG; chain 2 RIEELKKKWEELKKKIEELGGGG; chain 3 EVKKVEEEVKKLEEEIKKL; not fully specified (N-terminus); also: helices are one chain joined by GGGG loops)”, which “free energy of folding, ΔG (scaffold)” value [1] is on record?
The value was -4.6 kcal/mol.

With “MM1: 69 residue three-helix bundle peptide: scaffold 1LQ7 with both loops replaced by Gc-MAF Domain III loop; non-glycosylated analog, negative control (chain 1 Ac-GSRVKALEEKVKALEEKVKALGNAT; chain 2 PTELAKKKWEELKKKIEELGNATPT; chain 3 EVKKVEEEVKKLEEEIKKL-NH2; not fully specified (N-terminus); also: helices are one chain joined by the loops, non-glycosylated)” as the molecule, how does the “free energy of folding, ΔG” value ([2]; GdnHCl denaturation, 25° C., 10 mM potassium phosphate, pH 7.0, extrapolated to zero GdnHCl) read?
The value was -4.2 kcal/mol.

And the “free energy of folding relative to that of the original scaffold protein, 1LQ7” value ([2]; difference from 1LQ7)?
Its value is at most 30%.

And the aggregation state ([2]; helical content at room temperature and free energy of folding independent of concentration, corroborated by equilibrium sedimentation)?
Its aggregation state is “monomeric”.

B1: Gc-MAF: serum glycoprotein macrophage activating factor, formed from Vitamin D Binding Protein by post-translation modifications (protein, UniProt P02774 17-474, looked up)
Vitamin D-binding protein: LERGRDYEKNKVCKEFSHLGKEDFTSLSLVLYSRKFPSGTFEQVSQLVKEVVSLTEACCAEGADPDCYDTRTSALSAKSCESNSPFPVHPGTAECCTKEGLERKLCMAALKHQPQEFPTYVEPTNDEICEAFRKDPKEYANQFMWEYSTNYGQAPLSLLVSYTKSYLSMVGSCCTSASPTVCFLKERLQLKHLSLLTTLSNRVCSQYAAYGEKKSRLSNLIKLAQKVPTADLEDVLPLAEDITNILSKCCESASEDCMAKELPEHTVKLCDNLSTKNSKFEDCCQEKTAMDVFVCTYFMPAAQLPELPDVELPTNKDVCDPGNTKVMDKYTFELSRRTHLPEVFLSKVLEPTLKSLGECCDVEDSTTCFNAKGPLLKKELSSFIDKGQELCADYSENTFTEYKKKLAERLKAKLPDATPTELAKLVNKHSDFASNCCSINSPPLYCDSEIDAELKNIL
modifications: deglycosylated macrophage activating form
For B1, which “time to macrophage activation” value ([3]; enzymatically activated Gc-MAF given to Ehrlich ascite tumor-bearing mice) is on record?
The value was “less than 6 hr”.

What about the “time to substantially increased initiation of antibody production” value ([3]; injection of Gc-MAF) of the same molecule?
The value was at most 48 h.

And the mean fluorescence intensity ([4]; FL1 channel, non-stimulated control 543±149)?
The mean fluorescence intensity was 724±155.

What about the “percentage of cells positive to phagocytosis (M2)” value ([4]; non-stimulated control 43.6±10.3%) of the same molecule?
The value was 57.5±6.6%.
